The values below come from patent US6218508A, “Anti-microbial proteins” (Novartis AG, priority 1993, dated 2001).

This test deals with C. beticola. Put plainly: micro-titre plate bioassay of fungal growth inhibition. In kind it is cell-based. The conditions noted are these: spores of C. beticola, 96 well micro-titre plates, absorbance at 620 nm; FIGS. 4 and 7: 10 ug protein. How it is done: The thus obtained IWF is fractionated by cation exchange chromatography on a 10 ml CM-Sepharose column (Pharmacia LKB) pre-equilibrated in starting buffer (20 mM HAc (pH 4.5)). The fractionation is performed at 4° C. at a flow rate of 25 ml/h. Fractions of 3 ml are collected. Proteins not bound to the column are removed by extensive washing of the column with starting buffer. Bound proteins are eluted by applying to the column further starting buffer comprising stepwise increased salt concentrations: viz, 0.1 M NaCl, 0.3 M NACl and 0.5 M NaCl. The absorbance at 280 nm of the eluate is measured, and fractions judged to comprise protein are tested for their anti-fungal activity against C. beticola using the microtiter plate bioassay described previously (PCT Patent Application No. PCT/DK92/00108, Publication No. WO 92/17591, now assigned to Sandoz LTD). […] The inhibition of fungal growth is measured in 96 well micro-titre plates at 620 nm, essentially as described in WO 92/17591. […] The proteins, either alone or in combination with WIN N (which is purified from barley grain or stressed barley leaf as described by Hejgaard et al (FEBS Letters, 307, 389-392 (1992)), and/or a protein having a sequence corresponding to at least one of those given in SEQ ID Nos. 4-6, are incubated with spores of C. beticola. The assay mix (240 ul) contains 100 ul of potato dextrose broth (Difco), 40 ul protein sample (or buffer control) in 100 mM Tris and 20 mM NaCl (pH 8.0) as well as approximately 400 spores in 100 ul water. The micro-titre plates are sealed with tape to avoid evaporation and contamination and subsequently incubated at room temperature on an agitator operated at 200 rpm. The absorbance at 620 nm is measured each day for 8 days and plotted for each concentration of protein vs time.

In the case of “SEQ ID No 3: anti-fungal protein of 2.5-3 kDa from sugar beet leaf intercellular washing fluid, peaks 1 and 2 in FIG. 6 (SGECNMYGRCPPGYCCSKFGYCGVGRAYCG)”, the “anti-fungal activity (inhibition of fungal growth)” value is listed as “significant anti-fungal activity”.

B1: SEQ ID No 1: anti-fungal protein of about 7 kDa from sugar beet leaf intercellular washing fluid, peak 3.1 in FIG. 3 (protein)
chain: ITCGLVASKLAPCIGYLQGAPGPSAGCCGGIKGLNSAAASPADRKTACTCLKSAATSIKGINYGKAASLPRQCGVSVPYAISPNTNCNAIH
B1: the “anti-fungal activity (inhibition of fungal growth)” value is given as “significant anti-fungal activity”.

B2: SEQ ID No 2: anti-fungal protein of about 7 kDa from sugar beet leaf intercellular washing fluid, peak 3.2 in FIG. 3 (protein)
chain: ITCGLVASKLAPCIGYLQGAPGPSAGCCGGIKGLNSAAASPADRKTACTCLKSAATSMKGINYGKAASLPRQCGVSIPYAISPNTNCNAIH
For the molecule B2, the “anti-fungal activity (inhibition of fungal growth)” value was “significant anti-fungal activity”.
